The assay has as its target mite allergen specific IgE of atopic subjects. As to the kind of experiment: cell-based or functional assay.

B1: CHO-K1-expressed three-in-one chimeric mite allergen D1proenzD1LB5LD2 (protein)
chain: RPSSIKTFEEYKKAFNKSYATFEDEEAARKNFLESVKYVQSNGGAINHLSDLSLDEFKNRFLMSAEAFEHLKTQFDLNAETNACSINGNAPAEIDLRQMRTVTPIRMQGGCGSCWAFSGVAATESAYLAYRNQSLDLAEQELVDCASQHGCHGDTIPRGIEYIQHNGVVQESYYRYVAREQSCRRPNAQRFGISNYCQIYPPNVNKIREALAQTHSAIAVIIGIKDLDAFRHYDGRTIIQRDNGYQPNYHAVNIVGYSNAQGVDYWIVRNSWDTNWGDNGYGYFAANIDLMMIEEYPYVVILGGGSGGGSGGQEHKPKKDDFRNEFDHLLIEQANHAIEKGEHQLLYLQHQLDELNENKSKELQEKIIRELDVVCAMIEGAQGALERELKRTDLNILERFNYEEAQTLSKILLKDLKETEQKVKDIQTQGGGSGGGSGGDQVDVKDCANHEIKKVLVPGCHGSEPCIIHRGKPFQLEAVFEANQNTKTAKIEIKASIDGLEVDVPGIDPNACHYMKCPLVKGQQYDIKYTWNVPKIAPKSENVVVTVKVMGDDGVLACAIATHAKIRD
In the case of B1, the fold decrease in IgE-mediated histamine release by human basophils is 100 times; the histamine release in basophils (whole blood of two atopic individuals) is 104 fold; the skin prick test, positive skin reactivity in 15 atopic subjects was determined as 26.6%.

For the origin of these results see patent publication US20070065468A1.
